# Test results published in PMC4464074, “The HRDC domain of E. coli RecQ helicase controls single-stranded DNA translocation and double-stranded DNA unwinding rates without affecting mechanoenzymatic coupling”.
# Key:
# Assay in all cases: fluorescence anisotropy; SF50: 50 mM Tris-HCl pH 7.5, 50 mM NaCl, 1 mM DTT, 5 mM MgCl2, 50 µg/mL BSA, 25 °C; anisotropy with 10 nM forked duplex
# Conditions in all cases: protein: recombinant; label: 3'-fluorescein on fork2; fork: 33 bp duplex with two 21-nt ssDNA arms (3' arm of fork1, 5' arm of fork2)
# RecQ523 = RecQ523 (Escherichia coli, UniProt P15043 1-523)
# RecQWT = RecQWT (Escherichia coli, UniProt P15043 1-609)
# RecQY555A = RecQY555A (Escherichia coli, UniProt P15043 1-609, Y555A)
binder,measurement,setting,value
forked duplex (fork1/fork2) (mixed) DNA 1: CGTTGCGCAATTAAGCTCTAAGCCATCCGCAAATTTTTTTTTTTTTTTTTTTTT DNA 2: TCCTTTTGATAAGAGGTCATTTTTGCGGATGGTTAGAGCTTAATTGCGCAACG,Kd,RecQ523,60 ± 2 nM
same,Kd,RecQWT,13 ± 4 nM
same,Kd,RecQY555A,46 ± 2 nM
